Results published in article PMC8969299 (Chemical Engineering Journal, 2022).

Target: SARS-CoV-2 (2019-nCoV) spike (S) protein RBD-His recombinant protein (SARS-CoV-2, UniProt P0DTC2)
Assay: FRET or BRET

## IEEQAKTFLDKFNHEAEDLFYQSSLASWK [hACE2 mimic peptide beacon (COVID19-PEB)]
  binding result: binds
